Values quoted from earlier work in article PMC4028615.

Biological target: integrin (LFA-1) (Homo sapiens) (UniProt P20701)
Sequence (P20701 26-1090, chain 1 of 2): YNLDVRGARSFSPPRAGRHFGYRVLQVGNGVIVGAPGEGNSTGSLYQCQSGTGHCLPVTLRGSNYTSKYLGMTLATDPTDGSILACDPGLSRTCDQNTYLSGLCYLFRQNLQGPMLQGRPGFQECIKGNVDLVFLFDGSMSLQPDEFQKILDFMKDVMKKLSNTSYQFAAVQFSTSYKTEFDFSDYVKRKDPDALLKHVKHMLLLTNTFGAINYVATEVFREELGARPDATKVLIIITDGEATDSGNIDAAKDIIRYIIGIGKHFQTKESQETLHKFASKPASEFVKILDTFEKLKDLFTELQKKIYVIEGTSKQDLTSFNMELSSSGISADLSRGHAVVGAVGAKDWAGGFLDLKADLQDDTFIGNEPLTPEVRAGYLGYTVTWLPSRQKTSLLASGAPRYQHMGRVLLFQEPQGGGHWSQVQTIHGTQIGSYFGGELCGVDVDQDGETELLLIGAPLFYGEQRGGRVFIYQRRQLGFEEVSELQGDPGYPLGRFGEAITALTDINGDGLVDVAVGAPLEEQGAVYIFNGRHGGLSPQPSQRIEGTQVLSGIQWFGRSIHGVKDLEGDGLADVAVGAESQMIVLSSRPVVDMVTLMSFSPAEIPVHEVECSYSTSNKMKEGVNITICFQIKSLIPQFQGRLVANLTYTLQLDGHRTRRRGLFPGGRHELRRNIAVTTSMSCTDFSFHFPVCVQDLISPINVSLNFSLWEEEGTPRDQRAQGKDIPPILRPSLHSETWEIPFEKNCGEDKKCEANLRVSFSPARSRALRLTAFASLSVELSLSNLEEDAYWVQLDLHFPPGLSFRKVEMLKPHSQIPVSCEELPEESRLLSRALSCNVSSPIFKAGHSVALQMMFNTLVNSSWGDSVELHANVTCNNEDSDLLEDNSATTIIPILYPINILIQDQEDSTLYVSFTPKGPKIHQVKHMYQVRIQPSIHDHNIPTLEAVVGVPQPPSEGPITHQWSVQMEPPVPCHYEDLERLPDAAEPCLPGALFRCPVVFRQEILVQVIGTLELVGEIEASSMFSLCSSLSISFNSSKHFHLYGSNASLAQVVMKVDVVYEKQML
Sequence (P05107 23-700, chain 2 of 2, further chain): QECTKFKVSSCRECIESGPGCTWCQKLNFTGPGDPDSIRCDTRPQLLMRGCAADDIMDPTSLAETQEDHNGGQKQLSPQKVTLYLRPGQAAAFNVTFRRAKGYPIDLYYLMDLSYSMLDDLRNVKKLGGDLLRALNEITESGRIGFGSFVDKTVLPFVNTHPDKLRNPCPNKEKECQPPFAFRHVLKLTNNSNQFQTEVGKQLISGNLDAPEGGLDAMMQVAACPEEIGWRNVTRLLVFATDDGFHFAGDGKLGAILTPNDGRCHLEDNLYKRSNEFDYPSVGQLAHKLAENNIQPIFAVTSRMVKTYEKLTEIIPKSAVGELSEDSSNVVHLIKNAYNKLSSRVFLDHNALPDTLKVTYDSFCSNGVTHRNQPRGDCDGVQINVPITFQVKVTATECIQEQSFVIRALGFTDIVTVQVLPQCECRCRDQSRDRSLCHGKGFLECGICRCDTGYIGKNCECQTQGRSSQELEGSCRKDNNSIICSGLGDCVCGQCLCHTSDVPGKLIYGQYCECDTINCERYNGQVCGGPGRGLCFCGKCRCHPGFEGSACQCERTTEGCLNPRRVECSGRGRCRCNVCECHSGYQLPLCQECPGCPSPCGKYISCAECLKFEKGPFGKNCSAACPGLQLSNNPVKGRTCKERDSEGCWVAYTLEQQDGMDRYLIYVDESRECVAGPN

ICAM-1, sequence (P05362 28-480): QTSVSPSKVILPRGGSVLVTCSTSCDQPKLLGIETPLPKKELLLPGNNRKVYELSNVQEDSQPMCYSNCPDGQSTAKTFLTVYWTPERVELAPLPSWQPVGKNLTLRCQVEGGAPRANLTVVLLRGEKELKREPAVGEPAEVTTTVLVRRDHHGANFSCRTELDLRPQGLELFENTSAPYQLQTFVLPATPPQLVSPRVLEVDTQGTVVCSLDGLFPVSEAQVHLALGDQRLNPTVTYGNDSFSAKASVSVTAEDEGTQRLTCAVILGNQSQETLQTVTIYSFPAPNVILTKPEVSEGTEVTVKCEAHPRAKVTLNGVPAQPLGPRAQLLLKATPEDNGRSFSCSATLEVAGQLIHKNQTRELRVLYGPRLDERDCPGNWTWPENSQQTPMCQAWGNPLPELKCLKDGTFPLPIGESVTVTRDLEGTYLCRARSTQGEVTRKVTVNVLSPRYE

Kd: 100 nM
Substance: ICAM-1 (from UniProt P05362)
